Test results taken from US10597674B2, “HPPD variants and methods of use” (BASF Agricultural Solutions Seed, US LLC, priority 2015, dated 2020).

Tests used:
[1] = tested on: transgenic T1 soybean events; assay: Field trials of T1 soybean events, leaf damage eight days after application; format: in vivo
Protocol: Soybean plants expressing an HPPD inhibitor tolerant polypeptide of the present invention alone, or along with a gene conferring tolerance to glyphosate and/or a gene conferring tolerance to glufosinate or having a “plant expression cassette”, which includes only an HPPD inhibitor tolerant polypeptide of the present invention, were tested for tolerance to different HPPD inhibitor herbicide chemical classes. The transgenic plants were routinely analyzed for the expression and presence of the transgenes using the ELISA protein detection method (see detailed description under item D and H). Only plants recovering in the selection media and having a detectable HPPD transgene protein expression were regenerated, transferred to the greenhouse and used at V2-V4 growth stage for the HPPD inhibitor herbicide tolerance analysis of the T0 soybean events in the greenhouse (Example 6). The chemical formulation with HPPD inhibitor herbicides was supplemented with ammonium sulfate and methyl ester rapeseed oil. Herbicide tolerance evaluation was taken 5-21 days after spraying. The best performing independent T0 soybean events were selfed to produce T1 soybean seeds. In the field trails, the advanced T1 soybean seeds were planted and treated with either 210 g/ha of isoxaflutole or 150 g/ha of Cmpd.
In Table 10, the frequency of the soybean events showing a good tolerance, i.e. equal or less than 15% damage of the total leaf area are summarized

[2] = tested on: HPPD polypeptides (wild-type SEQ ID NO:1 and mutants); settings: different HPPD inhibitor herbicide chemical classes
[3] = tested on: E. coli cells expressing an HPPD polypeptide; assay: Brown Color Assay on solid LB-agar, visual score of brown pigment; format: cell-based; parameters: key to brown pigment formation: +++: a dark brown coloring as seen for E. coli cells expressing one of the respective mutant HPPD polypeptide without inhibitor; ++: medium brown pigmentation; +: light brown pigmentation; 0: no brown pigmentation development was detected on the LB agar plates
Protocol: Mutant HPPD polypeptides were analyzed using a brown color assay (WO2014/043435). Bacterial cells expressing the mutant HPPD polypeptide according to the invention were assayed in 96 well format for HPPD inhibitor tolerance by spotting on solid media containing LB-agar, selection agent for the expression vector pSE420(RI)NX (WO2014/043435), 5 mM tyrosine (Sigma-Aldrich, St. Louis, USA), 42 mM succinate (Sigma-Aldrich, St. Louis, USA) and six different concentrations of the HPPD inhibitor herbicide Cmpd. 1 (0-500 μM). In the brown color assay, an overnight culture of the E. coli cells expressing one of the respective mutant HPPD polypeptides were diluted to an OD600 of 1 and 10 μl extract was spotted in triplicates on plates containing 0, 25, 50, 100, 250, or 500 μM of Cmpd. 1. Plates were covered with airpore tape and incubated at 30 degrees C. After 24 hours, the cells were kept in darkness at room temperature and after 7 days the brown pigment formation was scored visually. In the presence of an HPPD inhibitor herbicide, this pigment formation is inhibited and the color of the agar plate will not alter, unless an HPPD inhibitor herbicide tolerant HPPD polypeptide is expressed and active. […] The “++” and “+” scores a medium and light brown pigmentation, respectively, and the “0” means that no brown pigmentation development was detected on the LB agar plates.

[4] = tested on: E. coli cells expressing an HPPD polypeptide; assay: Brown color bioassay in liquid culture, residual brown color formation (BCF), OD440 after 96 hours; format: cell-based; settings: Cmpd. 1 1000 μM, 96 hours
In short: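 E. coli expressing HPPD variants were grown at 30 degrees Celsius from OD600 0.3-0.5 in LB with 5 mM HPP, with or without herbicide (e.g. Cmpd. 1, 1000 μM). After 96 hours, supernatant OD440 was measured; residual brown colour formation compares pigment with and without inhibitor.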

[5] = tested on: transgenic soybean T0 events; assay: Greenhouse spray test of T0 soybean events, herbicide tolerance rating 0-3; format: in vivo; settings: Cmpd. 1 300 g AI/ha, five days
Protocol: Tolerant green shoots were transferred to rooting media or grafted. Rooted plantlets were transferred to the greenhouse after an acclimation period. Plants containing the transgene were then sprayed with HPPD inhibitor herbicides, as for example with mesotrione at a rate of 300-600 g AI/ha, or with Cmpd. […] Five to ten days after the application, the symptoms due to the application of the herbicide were evaluated and compared to the symptoms observed on wild-type plants under the same conditions.
For example, T0 soybean plants having a “plant expression cassette”, which includes an HPPD inhibitor tolerant HPPD polypeptide of the present invention, were tested towards the tolerance of Cmpd. 1.
Prior greenhouse trials with the transgenic plants, soybean transformants were routinely analyzed for the expression and presence of the transgenes using the ELISA protein detection method (see detailed description under item D and H). Only plants recovering in the selection media and having a detectable HPPD transgene protein expression were used for the herbicide tolerance analysis. A DeVries Tracker Sprayer was calibrated prior to each spraying. The chemical formulation used for Cmpd. 1 was supplemented with ammonium sulfate and methylated rape seed oil. Spray tests were conducted with a concentration, which equals to 300 grams AI per hectare (300 g AI/ha). Tolerance was evaluated 5 days after spraying. […] A rating of “3” was assigned to plants showing good tolerance, i.e. less than 10% of the leaf area from the top three trifoliate leaves showing chlorosis or only very slight bleaching.

[6] = tested on: transgenic soybean T0 events; assay: Additional greenhouse trials of T0 soybean events, leaf damage score 0-100 as percentiles; format: in vivo; settings: Cmpd. 1 300 g AI/ha, five days
Text: In additional greenhouse trials, 21 to 94 independent T0 soybean events per construct containing an exemplary mutant HPPD polypeptide were sprayed with the HPPD inhibitor herbicide Cmpd. […] Five days after the application, the leaf damaged area due to the HPPD inhibitor herbicide is scored in a scale from 0 (no damage) to 100 (complete bleaching). Under those conditions, the wild-type plants were completely bleached and their damage scores were in the 95-100 range.
Table 9 presents the distribution of the HPPD inhibitor herbicide damage score data as percentile for exemplary mutant HPPD inhibitor herbicide tolerant polypeptides (SEQ ID NOs). The percentiles normalize ranks of the damage score from an individual plant in a population. […] The median is the 50th percentile. Half the values had higher damage scores; half had lower damage scores. […] The difference between the 75th and 25th percentile is called the interquartile range and a marker to quantify scattering in the population. All constructs had only one single cassette insertion in the soybean genome.
In Table 9, the constructs were ranked based on injury scores according to the 75th percentile, from smallest to highest score. All exemplary HPPD polypeptide variants are better in all percentile analyses than the prior art mutant HPPD polypeptide (WO2014/043435) corresponding to SEQ ID NO:2 in this invention. The scoring of the prior art mutant HPPD polypeptide (WO2014/043435) corresponding to SEQ ID NO:2 in this invention is listed in the bottom row of Table 9.

[7] = 150 g/ha Cmpd. 1, stage V2-V4, eight days after application
[8] = 210 g/ha isoxaflutole, stage V2-V4, eight days after application

CS(=O)(=O)c1cc(C(F)(F)F)ccc1C(=O)c1cnoc1C1CC1 [isoxaflutole, (5-cyclopropyl-4-isoxazolyl)[2-(methylsulfonyl)-4-(trifluoromethyl)phenyl]methanone, reference compound]
leaf damage ([1]; wild-type or segregated T1 soybean plants without tolerant polypeptide, 210 g/ha isoxaflutole or 150 g/ha Cmpd. 1, eight days): 100%

B1: SEQ ID NO:1 (protein, listed as Pseudomonas fluorescens)
chain: MADLYENPMGLMGFEFIEFASPTPGTLEPIFEIMGFTKVATHRSKNVHLYRQGEINLILNNEPNSIASYFAAEHGPSVCGMAFRVKDSQKAYNRALELGAQPIHIDTGPMELNLPAIKGIGGAPLYLIDRFGEGSSIYDIDFVYLEGVERNPVGAGLKVIDHLTHNVYRGRMVYWANFYEKLFNFREARYFDIKGEYTGLTSKAMSAPDGMIRIPLNEESSKGAGQIEEFLMQFNGEGIQHVAFLTDDLVKTWDALKKIGMRFMTAPPDTYYEMLEGRLPDHGEPVDQLQARGILLDGSSVEGDKRLLLQIFSETLMGPVFFEFIQRKGDDGFGEGNFKALFESIERDQVRRGVLTAD
modifications: 4-hydroxyphenylpyruvate dioxygenase (HPPD; Pseudomonas fluorescens) (1)..(358)
character of inhibition by HPPD inhibitor herbicides (time-course) [2]: slow and tight binding inhibitor | brown pigmentation, in words ([3]; 25 μM Cmpd. 1): do not produce any brown pigmentation | brown pigmentation in the presence of the HPPD inhibitor, in words [4]: did not produce a substantial brown pigmentation

B2: SEQ ID NO: 16: mutant HPPD polypeptide: P268S T270S E335P G336D N337S A340V I345K (protein)
chain: MADLYENPMGLMGFEFIEFASPTPGTLEPIFEIMGFTKVATHRSKNVHLYRQGEINLILNNEPNSIASYFAAEHGPSVCGMAFRVKDSQKAYNRALELGAQPIHIDTGPMELNLPAIKGIGGAPLYLIDRFGEGSSIYDIDFVYLEGVERNPVGAGLKVIDHLTHNVYRGRMVYWANFYEKLFNFREARYFDIKGEYTGLTSKAMSAPDGMIRIPLNEESSKGAGQIEEFLMQFNGEGIQHVAFLTDDLVKTWDALKKIGMRFMTAPSDSYYEMLEGRLPDHGEPVDQLQARGILLDGSSVEGDKRLLLQIFSETLMGPVFFEFIQRKGDDGFGPDSFKVLFESKERDQVRRGVLTAD
modifications: mutant HPPD polypeptide
notes: mutant HPPD polypeptide: P268S T270S E335P G336D N337S A340V I345K
Frequency in the population (events with ≤15% leaf damage) [1, 7]: 95% | Independent events with ≤15% leaf damage after spray [1, 7]: 19 | Frequency in the population (events with ≤15% leaf damage) [1, 8]: 95% | Independent events with ≤15% leaf damage after spray [1, 8]: 19

B3: SEQ ID NO:2 (protein)
chain: MADLYENPMGLMGFEFIEFASPTPGTLEPIFEIMGFTKVATHRSKNVHLYRQGEINLILNNEPNSIASYFAAEHGPSVCGMAFRVKDSQKAYNRALELGAQPIHIDTGPMELNLPAIKGIGGAPLYLIDRFGEGSSIYDIDFVYLEGVERNPVGAGLKVIDHLTHNVYRGRMVYWANFYEKLFNFREARYFDIKGEYTGLTSKAMSAPDGMIRIPLNEESSKGAGQIEEFLMQFNGEGIQHVAFLTDDLVKTWDALKKIGMRFMTAPPDTYYEMLEGRLPDHGEPVDQLQARGILLDGSSVEGDKRLLLQIFSETLMGPVFFEFIQRKGDDGFGPWNFAQLFESIERDQVRRGVLTAD
modifications: mutant HPPD polypeptide
proportion of T0 soybean events with less than 10% leaf damage [5]: 54% | Percentage events rated “2 & 3” ([5]; less than 50% leaf damage): 83%

B4: SEQ ID NO: 104: mutant HPPD polypeptide: R213K M264L P268G T270E E335P G336H N337S A340V S344Q I345M (protein)
chain: MADLYENPMGLMGFEFIEFASPTPGTLEPIFEIMGFTKVATHRSKNVHLYRQGEINLILNNEPNSIASYFAAEHGPSVCGMAFRVKDSQKAYNRALELGAQPIHIDTGPMELNLPAIKGIGGAPLYLIDRFGEGSSIYDIDFVYLEGVERNPVGAGLKVIDHLTHNVYRGRMVYWANFYEKLFNFREARYFDIKGEYTGLTSKAMSAPDGMIKIPLNEESSKGAGQIEEFLMQFNGEGIQHVAFLTDDLVKTWDALKKIGMRFLTAPGDEYYEMLEGRLPDHGEPVDQLQARGILLDGSSVEGDKRLLLQIFSETLMGPVFFEFIQRKGDDGFGPHSFKVLFEQMERDQVRRGVLTAD
modifications: mutant HPPD polypeptide
notes: mutant HPPD polypeptide: R213K M264L P268G T270E E335P G336H N337S A340V S344Q I345M
brown pigment formation ([3]; 25 μM Cmpd. 1, scored after 7 days): +++ | brown pigment formation ([3]; 50 μM Cmpd. 1, scored after 7 days): +++ | brown pigment formation ([3]; 100 μM Cmpd. 1, scored after 7 days): +++ | brown pigment formation ([3]; 250 μM Cmpd. 1, scored after 7 days): ++ | brown pigment formation ([3]; 500 μM Cmpd. 1, scored after 7 days): ++ | leaf damage score, Interquartile range ([6]; 75th minus 25th percentile): 15.0 | leaf damage score, 25th percentile ([6]; scale 0 (no damage) to 100 (complete bleaching)): 5.0 | leaf damage score, 75th percentile ([6]; scale 0-100): 20.0 | leaf damage score, 90th percentile ([6]; scale 0-100): 72.5 | leaf damage score, Median ([6]; scale 0-100): 15.0
